Measurements: FireProtDB (doi:10.1021/bi0115028)
Where “and” joins values, the source holds several entries; their conditions need not be identical. Identical values can stand only once.

Conditions: Bos taurus, 25 °C, NaCl 2 M, whole UniProt chain shown
[1] = pH 2.3, GdnHCl, Absorbance, H3PO4, NaOH
[2] = pH 2.3, GdnHCl, CD, H3PO4, NaOH
[3] = pH 6.2, GdnHCl, Absorbance, KH2PO4-Na2HPO4
[4] = pH 6.2, GdnHCl, CD, KH2PO4-Na2HPO4
[5] = pH 6.2, Urea, Absorbance, KH2PO4-Na2HPO4
[6] = pH 6.2, Urea, CD, KH2PO4-Na2HPO4
[7] = pH 8.3, GdnHCl, Absorbance, KHPO4-Na2HPO4/NaOH
[8] = pH 8.3, GdnHCl, CD, KHPO4-Na2HPO4/NaOH
[9] = pH 8.3, Urea, Absorbance, KHPO4-Na2HPO4/NaOH
[10] = pH 8.3, Urea, CD, KHPO4-Na2HPO4/NaOH

B1: Beta-lactoglobulin wild type, P02754 (protein)
chain: MKCLLLALALTCGAQALIVTQTMKGLDIQKVAGTWYSLAMAASDISLLDAQSAPLRVYVEELKPTPEGDLEILLQKWENGECAQKKIIAEKTKIPAVFKIDALNENKVLVLDTDYKKYLLFCMENSAEPEQSLACQCLVRTPEVDDEALEKFDKALKALPMHIRLSFNPTQLEEQCHI
[1]
  denaturant m value: 3.9 kcal/mol/M
  denaturant midpoint (higher = more stable): 3.4 M
  unfolding free energy: 56.1 kJ/mol
[2]
  denaturant m value: 3.8 kcal/mol/M and 4.4 kcal/mol/M
  denaturant midpoint (higher = more stable): 3.5 M
  unfolding free energy: 54.4 kJ/mol and 63.6 kJ/mol
[3]
  denaturant m value: 2.5 kcal/mol/M
  denaturant midpoint (higher = more stable): 2.7 M
  unfolding free energy: 35.1 kJ/mol
[4]
  denaturant m value: 3.3 kcal/mol/M and 2.5 kcal/mol/M
  denaturant midpoint (higher = more stable): 2.9 M and 2.7 M
  unfolding free energy: 39.7 kJ/mol and 28.9 kJ/mol
[5]
  denaturant m value: 0.9 kcal/mol/M
  denaturant midpoint (higher = more stable): 4.1 M
  unfolding free energy: 15.5 kJ/mol
[6]
  denaturant m value: 0.7 kcal/mol/M and 0.6 kcal/mol/M
  denaturant midpoint (higher = more stable): 3.5 M and 2.1 M
  unfolding free energy: 9.62 kJ/mol and 5.86 kJ/mol
[7]
  denaturant m value: 3.2 kcal/mol/M
  denaturant midpoint (higher = more stable): 2.3 M
  unfolding free energy: 31.8 kJ/mol
[8]
  denaturant m value: 3 kcal/mol/M and 3.4 kcal/mol/M
  denaturant midpoint (higher = more stable): 2 M
  unfolding free energy: 24.7 kJ/mol and 28.9 kJ/mol
[9]
  denaturant m value: 1.1 kcal/mol/M
  denaturant midpoint (higher = more stable): 3.5 M
  unfolding free energy: 16.7 kJ/mol
[10]
  denaturant m value: 1.5 kcal/mol/M and 1.4 kcal/mol/M
  denaturant midpoint (higher = more stable): 4.4 M and 3.6 M
  unfolding free energy: 26.8 kJ/mol and 20.9 kJ/mol
